Test results reported in US20230203142A1, “TREATMENT OF METABOLIC DISORDERS THROUGH THE TARGETING OF A NOVEL CIRCULATING HORMONE COMPLEX” (The President and Fellows of Harvard College, priority 2020, published 2023).

How the values were obtained:
recombinant NDPK = biological target: T1, recombinant NDPK (Homo sapiens, UniProt P15531); experiment: Recombinant kinase activity assay, NDPK (ADP-Glo/Kinase-Glo); assay type: biochemical
T1 construct: purchased Acro Biosystems NM1-H5147
Description: An on-bead kinase assay was developed to measure the activity of endogenous NDPK and ADK pulled down from serum using a-Ab or c-Ab conjugated beads. Both NDPK and ADK are bi-directional kinases that will produce ATP or ADP depending on the substrates provided (FIGS. 4B-C). Kinase activity assays were performed in 384-well plates in reaction buffer (PBS with 0.1% BSA, 0.01% F-127, 5 mM MgCl2). Experiments with recombinant proteins were performed at final concentrations of 40 μg/ml for ADK and FABP4, and 20 ug/ml for NDPK, and a reaction volume of 10 μl. Antibodies were used at a final concentration of 80 ug/ml. Substrates were added in equimolar ratios depending on the kinase being assayed and the direction of the reaction in serial dose responses, with the highest concentration of 5 μM. Proteins and substrates were incubated for 1 hr at room temperature, and ADP and ATP production were monitored using ADP-Glo and Kinase-Glo kits, respectively, according the manufacturer instructions (V6930 and V6711 Promega, USA). Luminescence was quantified using a SpectraMax Paradigm plate reader 30 min after the addition of substrate. Consistent with the MS results, ADK activity, as measured by generation of ATP, was specifically observed in samples pulled down with a-Ab but not c-Ab (FIG. 5A). […] To test this possibility, the ATP and ADP generating activity of recombinant ADK was assessed in the presence of the proposed complex components.

INS1 cells = experiment: Glucose-stimulated insulin secretion (GSIS), INS1 cells; assay type: cell-based, rat
Description: This finding was recapitulated in both primary human islets from multiple non-diabetic donors (FIG. 6B), as well as INS1 cells (FIG. 6C). Human islets from review board approved healthy donors were isolated using the Edmonton protocol and provided by the IsletCore and Clinical Islet Laboratory (University of Alberta, Canada). Donors with a BMI<25 and HbA1c<6.0% were used for experiments. Islets were hand-picked three times and cultured at 37° C. in RPMI media with 10% FBS and 1% Penicillin/Streptomycin overnight before use. For INS1 cells, cells were plated at 8000 cells/well in 96-well plates and incubated overnight prior to experimentation. Insulin secretion assay was performed as above using 200 μl/well for each treatment. Cells were lysed using 80 μl ultrapure water and flash freezing. For siRNA experiments, INS1 cells were allowed to reach confluency before transfection of siRNA (Horizon Discovery; L-090381-02-0005) using Lipofectamine 3000 (Thermo Fischer; L3000015) according to manufacturer protocol for 48 hours prior to assays.
As additional controls, it was explored whether lipid binding was required for FABP4 action. […] FABP4 inhibitor studies were performed using BMS-309403 (10 nM; Sigma #BM0015).
To further elucidate the role of purinergic receptors in this signaling process, a potent and selective P2Y1 inhibitor, MRS2179 (Baurand et al., 2001) was utilized. […]

T1 sequence (P15531 whole entry): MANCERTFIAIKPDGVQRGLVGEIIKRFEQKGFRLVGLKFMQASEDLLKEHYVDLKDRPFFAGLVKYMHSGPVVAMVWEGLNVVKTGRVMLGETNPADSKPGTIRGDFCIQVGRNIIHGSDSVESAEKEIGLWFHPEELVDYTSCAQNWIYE

ADP producing capacity of NDPK (recombinant NDPK; in the presence of the complex components): rescued
activity of NDPK to generate ADP (recombinant NDPK; recombinant NDPK plus the added component): no effect
B1: a-Ab: monoclonal antibody previously reported as CA33; heavy chain SEQ ID NO 446, light chain SEQ ID NO 447; binds FABP4 and NDPK (antibody, listed as Homo sapiens)
heavy: QSVEESGGRLVTPGTPLTLTCTVSGFSLSTYYMSWVRQAPGKGLEWIGIIYPSGSTYCASWAKGRFTISKASTTVDLKITSPTTEDTATYFCARPDNDGTSGYLSGFGLWGQGLVTVSSAKTTPPSVYPLAPGSAAQTNSMVTLGCLVKGYFPEPVTVTWNSGSLSSGVHTFPAVLQSDLYTLSSSVTVPSSTWPSETVTCNVAHPASSTKVDKKIVPRDC
light: DVVMTQTPASVSEPVGGTVTIKCGASEDISRYLVWYQQKPGQPPKRLIYKASTLASGVPSRFKGSGSGTDFTLTISDLECDDAATYYCQCTYGTYAGSFFYSFGGGTEVVVERTDAAPTVSIFPPSSEQLTSGGASVVCFLNNFYPKDINVKWKIDGSERQNGVLNSWTDQDSKDCTYSMSSTLTLTKDEYERHNSYTCEATHKTSTSPIVKSFNRNEC
GSIS in the presence of the NDPK-ADK/FABP4 complex (INS1 cells): rescued
